Assay [1] deals with lysine-acetylated histone H4 peptide SGRGKGG-AcK-GLGK (Lys8 acetylated). In words: NMR titration, amide chemical shift changes in 15N-HSQC spectra against ligand concentration.
In assay [2] the target is histone H4 AcK16 peptide …-AcK-RHRK (SEQ ID NO:59). Nature of the assay: NMR 2D 1H-15N HSQC titration; 'binds weakly'.
Sequence of histone H4 AcK16 peptide …-AcK-RHRK (SEQ ID NO:59) (peptide, as listed by the source): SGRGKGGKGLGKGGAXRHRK

B1: P/CAF bromodomain (residues 719-832 of human p300/CBP-associated factor), wild-type, Q92831 719-832 (protein)
chain: SKEPRDPDQLYSTLKSILQQVKSHQSAWPFMEPVKRTEAPGYYEVIRFPMDLKTMSERLKNRYYVSKKLFMADLQRVFTNCKEYNAAESEYYKCANILEKFFFSKIKEAGLIDK
Usually Kd stands for the equilibrium constant for the complex coming apart. For the molecule B1, the Kd in assay [1] was 346 µM.

B2: bromodomain of P/CAF (residues 719-832 of SEQ ID NO:2), Q92831 719-832 (protein)
chain: B1 chain
As to B2, in assay [2], the Kd is less than 300 µM.
